Where a SMILES comes first, the peptide text is derived from it. [ ]: non-standard residue; d: D form. The star is where a group is joined. Benzoyl(4-tBu) = CC(C)(C)c1ccc(C(=O)*)cc1; Lys(Et2) = CCN(CC)CCCC[C@H](N)C(=O)O
How the values were obtained:
chromodomain of MPP8 = assay: selectivity profile of UNC3866, MPP8; type: binding; conditions: reduced potency relative to CBX7 and CBX4
CDYL chromodomains = assay: selectivity profile of UNC3866, CDYL chromodomains; type: binding; conditions: reduced potency relative to CBX7 and CBX4
[1] = target: PRC1 chromodomains (CBX2, -4, -6, -7, and -8); conditions: cited from earlier work
[2] = target: CDYL2 chromodomain (Chromodomain Y-like protein 2); assay: fluorescence polarisation
[3] = target: CBX7 chromodomain (chromobox protein homolog 7); assay: fluorescence polarisation
[4] = target: CBX8 chromodomain (chromobox protein homolog 8); assay: fluorescence polarisation
[5] = target: CDYL chromodomain (Chromodomain Y-like protein); assay: fluorescence polarisation
[6] = target: CDY1 chromodomain (Testis-specific chromodomain protein Y 1); assay: fluorescence polarisation
[7] = target: MPP8 chromodomain (M-phase phosphoprotein 8); assay: fluorescence polarisation

## CCN(CC)CCCC[C@H](NC(=O)[C@H](CC(C)C)NC(=O)[C@H](C)NC(=O)[C@H](Cc1ccccc1)NC(=O)c1ccc(C(C)(C)C)cc1)C(=O)N[C@@H](CO)C(=O)OC [UNC3866] ({Benzoyl(4-tBu)}-FAL[Lys(Et2)]S-OMe)
Chromodomain of MPP8
  selectivity, MPP8 relative to CBX7 and CBX4: ~30 fold
CDYL chromodomains
  selectivity, CDYL chromodomains relative to CBX7 and CBX4: ~8 fold
[1]
  Kd: ~100 nM

## UNC3866-FAM (peptide)
[2]
  Kd: 710 nM
[3]
  Kd: 93 nM
[4]
  Kd: 666 nM
[5]
  Kd: 1010 nM
[6]
  Kd: 6410 nM
[7]
  Kd: 4790 nM
